This note sets out measurements from patent publication US20150258192A1, “COMPOSITIONS AND METHODS FOR PREVENTING OR TREATING CHRONIC LUNG ALLOGRAFT DYSFUNCTION (CLAD) AND IDIOPATHIC PULMONARY FIBROSIS (IPF)” (priority 2014, published 2015).

No end group written: not given here.

Holding throughout (assay): Kinase Profiling Assay
Common to all, as to assay type: biochemical
Holding throughout (conditions): peptide 100 μM

One test has as its target T1, PKCι(h) (Homo sapiens, UniProt P41743).
T1 sequence (P41743 1-596): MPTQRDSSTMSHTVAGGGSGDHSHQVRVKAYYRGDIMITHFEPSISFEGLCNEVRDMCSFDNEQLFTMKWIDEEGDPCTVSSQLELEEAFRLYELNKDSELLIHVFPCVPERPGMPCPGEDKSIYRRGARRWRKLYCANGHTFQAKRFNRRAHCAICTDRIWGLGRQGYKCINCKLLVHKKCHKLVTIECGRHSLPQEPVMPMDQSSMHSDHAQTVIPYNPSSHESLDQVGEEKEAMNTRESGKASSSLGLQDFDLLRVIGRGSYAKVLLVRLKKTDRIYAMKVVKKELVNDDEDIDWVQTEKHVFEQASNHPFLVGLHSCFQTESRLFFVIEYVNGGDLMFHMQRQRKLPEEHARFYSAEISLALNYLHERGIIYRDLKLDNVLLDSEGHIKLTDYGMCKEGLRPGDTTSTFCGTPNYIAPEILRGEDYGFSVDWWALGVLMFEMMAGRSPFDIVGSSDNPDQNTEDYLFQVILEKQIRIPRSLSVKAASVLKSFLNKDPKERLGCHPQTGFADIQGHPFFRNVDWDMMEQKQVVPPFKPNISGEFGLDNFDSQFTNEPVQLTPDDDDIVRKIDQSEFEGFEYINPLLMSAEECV
In short, it runs like this:
(§1)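 In this 266-kinase specificity panel, every measurement was duplicated. Transfer of labeled phosphate from ATP to a cationic substrate was quantified after the substrate adhered to an anionic filter membrane and was scintillation-counted, then related to a full-activity control.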

The target in the next test is T2, Src(T341M)(h) (Homo sapiens, UniProt P12931, T341M).
T2 construct: purchased Millipore
The essentials: as §1

In another test the target is T3, NEK2(h) (Homo sapiens, UniProt P51955).
T3 construct: purchased Millipore
T3 sequence (P51955 1-445): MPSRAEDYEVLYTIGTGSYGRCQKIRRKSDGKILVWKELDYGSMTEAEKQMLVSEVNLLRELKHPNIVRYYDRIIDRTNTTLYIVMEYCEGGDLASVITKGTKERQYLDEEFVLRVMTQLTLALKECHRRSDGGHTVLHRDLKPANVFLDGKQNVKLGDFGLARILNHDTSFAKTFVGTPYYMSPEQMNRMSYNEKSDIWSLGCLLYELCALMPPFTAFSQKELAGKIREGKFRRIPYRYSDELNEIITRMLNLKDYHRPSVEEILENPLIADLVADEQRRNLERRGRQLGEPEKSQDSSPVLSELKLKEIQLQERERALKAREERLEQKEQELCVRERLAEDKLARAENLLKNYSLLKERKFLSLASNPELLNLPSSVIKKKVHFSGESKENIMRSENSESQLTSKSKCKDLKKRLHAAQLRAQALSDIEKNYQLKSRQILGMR
In short, it runs like this: as §1

The target in the next test is BRK(h) (Homo sapiens, UniProt Q13882). The essentials: as §1
A further test concerns the target ROCK-I(h) (Homo sapiens, UniProt Q13464). In short, it runs like this: as §1
The target of another test is T4, IKKα(h) (Homo sapiens, UniProt O15111).
T4 construct: purchased Millipore
T4 sequence (O15111 1-745): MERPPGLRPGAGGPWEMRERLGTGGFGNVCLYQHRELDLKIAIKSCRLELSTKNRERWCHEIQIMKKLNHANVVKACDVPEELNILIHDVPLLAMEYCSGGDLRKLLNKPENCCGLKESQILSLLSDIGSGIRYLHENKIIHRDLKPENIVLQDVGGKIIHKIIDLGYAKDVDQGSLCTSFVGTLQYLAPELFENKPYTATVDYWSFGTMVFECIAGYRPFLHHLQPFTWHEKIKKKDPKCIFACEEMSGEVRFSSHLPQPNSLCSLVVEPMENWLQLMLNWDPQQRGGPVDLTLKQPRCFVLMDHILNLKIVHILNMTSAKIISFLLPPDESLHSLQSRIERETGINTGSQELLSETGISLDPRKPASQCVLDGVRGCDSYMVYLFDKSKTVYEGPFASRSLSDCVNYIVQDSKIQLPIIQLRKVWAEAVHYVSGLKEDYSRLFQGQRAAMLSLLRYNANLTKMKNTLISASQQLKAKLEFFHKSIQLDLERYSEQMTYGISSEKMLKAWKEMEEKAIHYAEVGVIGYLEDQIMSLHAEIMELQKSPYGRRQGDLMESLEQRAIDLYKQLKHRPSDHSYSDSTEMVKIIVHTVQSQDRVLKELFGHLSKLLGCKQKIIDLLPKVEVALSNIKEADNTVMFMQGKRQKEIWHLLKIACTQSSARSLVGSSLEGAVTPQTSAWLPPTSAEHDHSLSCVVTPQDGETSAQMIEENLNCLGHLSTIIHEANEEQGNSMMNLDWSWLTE
In short, it runs like this: as §1

In another test the target is Flt3(D835Y)(h) (Homo sapiens, UniProt P36888, D835Y). In short, it runs like this:
as §1

The target of the next test is T5, STK33(h) (Homo sapiens, UniProt Q9BYT3).
T5 construct: purchased Millipore
The essentials:
as §1

Another test concerns the target T6, Txk(h) (Homo sapiens, UniProt P42681).
T6 sequence (P42681 1-527): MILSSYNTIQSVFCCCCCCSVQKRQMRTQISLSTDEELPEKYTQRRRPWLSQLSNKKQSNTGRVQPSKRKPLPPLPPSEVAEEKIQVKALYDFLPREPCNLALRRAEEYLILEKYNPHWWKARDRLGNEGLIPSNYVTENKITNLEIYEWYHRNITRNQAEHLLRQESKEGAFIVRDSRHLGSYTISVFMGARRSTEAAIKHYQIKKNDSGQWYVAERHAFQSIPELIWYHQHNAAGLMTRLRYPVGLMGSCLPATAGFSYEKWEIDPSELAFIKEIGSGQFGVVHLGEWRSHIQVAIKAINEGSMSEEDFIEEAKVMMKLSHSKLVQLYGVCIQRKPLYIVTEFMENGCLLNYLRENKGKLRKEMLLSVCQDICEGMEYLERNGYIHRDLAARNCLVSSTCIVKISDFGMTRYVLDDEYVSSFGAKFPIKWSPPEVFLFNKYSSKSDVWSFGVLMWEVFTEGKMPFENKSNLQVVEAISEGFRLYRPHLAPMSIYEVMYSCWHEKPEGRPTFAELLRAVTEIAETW
The essentials:
as §1

T5 sequence (Q9BYT3 whole entry): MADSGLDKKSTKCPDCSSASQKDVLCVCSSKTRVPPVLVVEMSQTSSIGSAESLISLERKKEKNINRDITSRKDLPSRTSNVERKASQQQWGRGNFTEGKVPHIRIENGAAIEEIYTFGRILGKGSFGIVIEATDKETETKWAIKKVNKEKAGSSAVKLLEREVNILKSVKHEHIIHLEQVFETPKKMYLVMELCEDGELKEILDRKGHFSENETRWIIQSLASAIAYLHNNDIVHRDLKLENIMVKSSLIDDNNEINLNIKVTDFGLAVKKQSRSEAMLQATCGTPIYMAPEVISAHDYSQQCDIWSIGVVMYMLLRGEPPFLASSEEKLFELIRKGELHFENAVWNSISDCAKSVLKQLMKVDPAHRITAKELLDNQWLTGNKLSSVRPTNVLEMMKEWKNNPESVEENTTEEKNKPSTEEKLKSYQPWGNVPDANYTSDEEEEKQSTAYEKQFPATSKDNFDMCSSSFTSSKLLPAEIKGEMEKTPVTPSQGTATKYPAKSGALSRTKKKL
Sequence of BRK(h) (Q13882 whole entry): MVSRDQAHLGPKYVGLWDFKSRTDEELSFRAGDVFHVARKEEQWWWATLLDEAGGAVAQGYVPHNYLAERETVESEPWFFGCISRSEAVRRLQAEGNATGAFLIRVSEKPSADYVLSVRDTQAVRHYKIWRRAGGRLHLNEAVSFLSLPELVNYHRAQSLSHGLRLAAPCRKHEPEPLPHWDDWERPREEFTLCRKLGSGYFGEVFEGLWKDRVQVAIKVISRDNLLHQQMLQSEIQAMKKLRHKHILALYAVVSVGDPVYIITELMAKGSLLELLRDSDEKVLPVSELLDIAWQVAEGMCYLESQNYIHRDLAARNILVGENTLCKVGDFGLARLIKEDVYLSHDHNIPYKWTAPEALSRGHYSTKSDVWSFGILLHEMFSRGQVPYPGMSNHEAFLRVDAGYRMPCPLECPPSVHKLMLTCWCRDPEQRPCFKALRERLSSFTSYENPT
Sequence of ROCK-I(h) (Q13464 whole entry): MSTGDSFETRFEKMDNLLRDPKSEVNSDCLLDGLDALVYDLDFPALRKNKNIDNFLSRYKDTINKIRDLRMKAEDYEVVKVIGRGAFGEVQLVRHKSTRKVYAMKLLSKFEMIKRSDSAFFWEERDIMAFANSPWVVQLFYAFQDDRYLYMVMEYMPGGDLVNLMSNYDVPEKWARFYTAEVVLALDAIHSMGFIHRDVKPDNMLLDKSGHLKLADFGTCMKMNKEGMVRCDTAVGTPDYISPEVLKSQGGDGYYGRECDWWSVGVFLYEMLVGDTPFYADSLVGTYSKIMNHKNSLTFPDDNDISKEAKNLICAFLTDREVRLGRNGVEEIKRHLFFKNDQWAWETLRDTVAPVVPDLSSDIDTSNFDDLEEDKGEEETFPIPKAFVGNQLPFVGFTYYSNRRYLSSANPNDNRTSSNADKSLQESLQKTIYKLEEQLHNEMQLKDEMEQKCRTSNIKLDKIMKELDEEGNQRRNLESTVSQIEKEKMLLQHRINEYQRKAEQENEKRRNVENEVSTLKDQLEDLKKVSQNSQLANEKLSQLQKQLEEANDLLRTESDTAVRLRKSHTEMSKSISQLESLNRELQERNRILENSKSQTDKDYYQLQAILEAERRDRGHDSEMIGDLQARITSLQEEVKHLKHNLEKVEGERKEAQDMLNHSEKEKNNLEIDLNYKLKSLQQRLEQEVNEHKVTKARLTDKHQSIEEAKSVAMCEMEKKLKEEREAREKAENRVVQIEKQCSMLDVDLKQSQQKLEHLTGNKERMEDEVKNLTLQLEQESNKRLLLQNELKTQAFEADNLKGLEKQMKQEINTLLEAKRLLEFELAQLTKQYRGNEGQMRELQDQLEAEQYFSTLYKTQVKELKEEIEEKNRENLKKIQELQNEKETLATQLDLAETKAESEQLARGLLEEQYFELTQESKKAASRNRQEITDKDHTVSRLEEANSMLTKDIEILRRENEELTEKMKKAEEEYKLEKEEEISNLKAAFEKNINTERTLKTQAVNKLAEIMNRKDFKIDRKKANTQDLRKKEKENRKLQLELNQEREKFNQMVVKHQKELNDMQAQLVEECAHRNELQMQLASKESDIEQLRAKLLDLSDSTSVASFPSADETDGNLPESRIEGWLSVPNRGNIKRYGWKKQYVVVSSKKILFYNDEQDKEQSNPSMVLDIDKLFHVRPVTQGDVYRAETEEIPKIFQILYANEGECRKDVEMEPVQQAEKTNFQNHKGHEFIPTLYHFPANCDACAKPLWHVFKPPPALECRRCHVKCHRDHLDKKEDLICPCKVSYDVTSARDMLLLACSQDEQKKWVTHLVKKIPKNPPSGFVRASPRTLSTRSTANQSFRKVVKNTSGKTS

FAKLAARLYRKALARQLGVAA [MMI-0300]: the “% activity” value in the test with PKCι(h) came to 68%; with Src(T341M)(h), 70%; in the test with NEK2(h) it was 78%; with BRK(h), 35%; with ROCK-I(h), 79%; in the test with IKKα(h), 93%. The “% activity” value with Flt3(D835Y)(h) turned out to be 80%; with STK33(h) it was 45%; with Txk(h) it was 48%.
Regarding “HRRIKAWLKKIKALARQLGVAA (Mammal) [MMI-0500]”, the “% activity” value is reported as 7% in the test with PKCι(h); 59% with Src(T341M)(h); 0% with NEK2(h); 41% with BRK(h); 17% with ROCK-I(h); 50% with IKKα(h). The figures for the “% activity” value in the test with Flt3(D835Y)(h), with STK33(h) and with Txk(h) were 65%, 16% and 10%, respectively.
Regarding KAFAKLAARLYRKALARQLGVAA [MMI-0400], the “% activity” value in the test with PKCι(h) worked out at 46%; in the test with Src(T341M)(h) it was 76%; in the test with NEK2(h), 61%; in the test with BRK(h) it was 18%; with ROCK-I(h), 73%; with IKKα(h), 87%. Besides, the “% activity” value is recorded as 71% with Flt3(D835Y)(h), 52% in the test with STK33(h) and 37% with Txk(h).
In the case of YARAAARQARAKALARQLGVAA [MMI-0100], the “% activity” value at PKCι(h) is 110%; at BRK(h), 70%; on IKKα(h), 108%; at Flt3(D835Y)(h), 120%; at STK33(h), 99%; on Txk(h), 87%.
Consider “YARAAARQARAKALNRQLGVA (Mammal) [MMI-0200]”, for which the “% activity” value with PKCι(h) came to 97%; with Src(T341M)(h) it was 56%; in the test with NEK2(h) it was 97%; with BRK(h), 127%; with STK33(h) it was 98%; with Txk(h) it was 98%.
